This note sets out measurements from patent publication US20050276784A1.

Assay [1] has as its target c-kit receptor of the W^v allele, on W^v/W^v mast cells (mouse) (UniProt P05532).
Assay [2] addresses c-kit receptor (wild type), on mast cells and on NIH ψ2 cells expressing the c-kit cDNA (mouse) (UniProt P05532).

As for “KL (c-kit ligand), soluble form purified from conditioned medium of Balb/3T3 fibroblasts (from UniProt P20826)”, the proliferation of mast cells (^3H-thymidine incorporation) (% of +/+ values) in assay [1] amounted to 10. The substance also returned a half maximal proliferation of +/+ mast cells (^3H-thymidine incorporation) (ng of protein in 0.2 ml) in assay [2] of 0.5.
